Data as given in patent publication US20140294846.
Like-named read-outs stand apart in the source and are kept apart here.

Experiments:
[1] = test system: versican in the ECM materials deposited by TA3 transfectants
[2] = target: P97857
[3] = target: versican in the ECM materials deposited by TA3 transfectants; remark: listed apart in the source

Molecule | degradation of versican in ECM of TA3 transfectants (Western blot, anti-DP antibody) [1] | auto-proteolytic cleavage of purified ADAMTS-1 in vitro (Western blot, anti-v5) [2] | degradation of versican in ECM of TA3 transfectants (Western blot, anti-DP antibody) [3]
ADAMTS-1E/Q, protease-dead mutant of mouse ADAMTS-1 (E386 to Q), v5-epitope tagged | expression of ADAMTS-1E/Q but not ADAMTS-1NTF, ADAMTS-1CTF inhibits the degradation | – | –
full-length mouse ADAMTS-1, v5-epitope tagged (wild type) (protein) ARGAHGRPTEEDEELVLPSLERAPGHDSTTTRLRLDAFGQQLHLKLQPDSGFLAPGFTLQTVGRSPGSEAQHLDPTGDLAHCFYSGTVNGDPGSAAALSLCEGVRGAFYLQGEEFFIQPAPGVATERLAPAVPEEESSARPQFHILRRRRRGSGGAKCGVMDDETLPTSDSRPESQNTRNQWPVRDPTPQDAGKPSGPGSIRKKRFVSSPRYVETMLVADQSMADFHGSGLKHYLLTLFSVAARFYKHPSIRNSISLVVVKILVIYEEQKGPEVTSNAALTLRNFCSWQKQHNSPSDRDPEHYDTAILFTRQDLCGSHTCDTLGMADVGTVCDPSRSCSVIEDDGLQAAFTTAHELGHVFNMPHDDAKHCASLNGVSGDSHLMASMLSSLDHSQPWSPCSAYMVTSFLDNGHGECLMDKPQNPIKLPSDLPGTLYDANRQCQFTFGEESKHCPDAASTCTTLWCTGTSGGLLVCQTKHFPWADGTSCGEGKWCVSGKCVNKTDMKHFATPVHGSWGPWGPWGDCSRTCGGGVQYTMRECDNPVPKNGGKYCEGKRVRYRSCNIEDCPDNNGKTFREEQCEAHNEFSKASFGNEPTVEWTPKYAGVSPKDRCKLTCEAKGIGYFFVLQPKVVDGTPCSPDSTSVCVQGQCVKAGCDRIIDSKKKFDKCGVCGGNGSTCKKMSGIVTSTRPGYHDIVTIPAGATNIEVKHRNQRGSRNNGSFLAIRAADGTYILNGNFTLSTLEQDLTYKGTVLRYSGSSAALERIRSFSPLKEPLTIQVLMVGHALRPKIKFTYFMKKKTESFNAIPTFSEWVIEEWGECSKTCGSGWQRRVVQCRDINGHPASECAKEVKPASTRPCADLPCPHWQVGDWSPCSKTCGKGYKKRTLKCVSHDGGVLSNESCDPLKKPKHYIDFCTLTQCS | – | ADAMTS-1 was auto-proteolytically cleaved to release v5-epitope tagged C-terminal cleavage fragments | increased expression of exogenous ADAMTS-1 but not ADAMTS-1minusTSP-1 on top of the endogenous ADAMTS-1 promotes degradation of versican
